Source: patent publication US20210087288A1

Experiments:
[1] = target: Cynomolgus monkey FcRn (cynomolgus monkey) (UniProt Q8SPV9); assay: SPR (BIAcore T200), antibody captured via anti-Fab, FcRn injected, pH 6, steady state
Human FcRn (human) = Human FcRn (human) (UniProt P55899); assay: as above
Chain of Human FcRn (human) (P55899 24-297 limits assumed): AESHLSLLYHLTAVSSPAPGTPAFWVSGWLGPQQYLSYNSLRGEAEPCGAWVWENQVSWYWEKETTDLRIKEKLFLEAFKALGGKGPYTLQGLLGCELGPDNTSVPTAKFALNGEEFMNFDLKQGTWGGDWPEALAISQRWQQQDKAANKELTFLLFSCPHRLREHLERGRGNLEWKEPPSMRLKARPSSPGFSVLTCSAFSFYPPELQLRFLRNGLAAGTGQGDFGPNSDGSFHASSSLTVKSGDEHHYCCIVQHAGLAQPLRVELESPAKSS

Chain of Cynomolgus monkey FcRn (cynomolgus monkey) (Q8SPV9 24-297 limits assumed): as the sequence (P55899 24-297 limits assumed) above, with N39D, E44Q, G99S, S189G, S190N, L217M, S269T counted along it

Anti-gD.hIgG1 (antibody)
Kd [1]: 900 nM
Kd (Human FcRn (human)): 700 nM
